These results are taken from article PMC9021610.

Data set [1] concerns the target nsp12 (RdRp catalytic subunit, Sf9) (SARS-CoV-2, UniProt P0DTD1 4393-5324). As to the kind of experiment: EMSA; nsp12 alone. The settings on record: protein: recombinant; tags: 6xHis (Results: C-terminal; Methods: His tag after 5' ATG); label: 5'-biotin on strand 1 (S1); 5' overhang 10 nt (U10) on strand 2. In general terms: In EMSA bound probe runs differently from free probe, usually more slowly.

Data set [2] deals with nsp12 (RdRp catalytic subunit, Sf9);nsp7;nsp8 (SARS-CoV-2;SARS-CoV-2;SARS-CoV-2, UniProt P0DTD1;P0DTD1;P0DTD1 4393-5324;3860-3942;3943-4140, ||). The experiment in a line: EMSA. The following applies: protein: recombinant;recombinant;recombinant; tags: 6xHis (Results: C-terminal; Methods: His tag after 5' ATG);6xHis (Results: C-terminal; legend: His6-nsp7);6xHis (Results: C-terminal; legend: His6-nsp8); copies: 1;1;2; label: 5'-biotin on strand 1 (S1); 5' overhang 10 nt (U10) on strand 2.

B1: S1*/S2 RNA primer/template (dsRNA)
RNA 1: GCUAUGUGAGAUUAAGAAUU
RNA 2: UUUUUUUUUUAAUUCUUAAUCUCACAUAGC
With B1, the binding result in data set [1] and in data set [2] was “binds” in each case.
